These results are taken from publication PMC5902456.

Experiment [1] has as its target sfGFP-MAP7 (full-length human MAP7) (human) (UniProt Q14244). In words: TIRF microscopy of fluorescent proteins on immobilized microtubules; recruitment and motility: MAP7 (or ensconsin), 5 nM, flowed in first onto immobilized microtubules, then the kinesin-1 construct (1 nM K560); BRB80 pH 6.8 with 1 mM ATP, 150 mM K-acetate; fold change of kinesin fluorescence on the microtubule against no MAP.

In experiment [2] the target is taxol-stabilized microtubules polymerized from porcine brain tubulin (porcine) (UniProt P02550).
Experiment [3] concerns the target sfGFP-Ensconsin, wild type (Drosophila melanogaster) (Drosophila melanogaster). Put plainly: TIRF microscopy of fluorescent proteins on immobilized microtubules; recruitment and motility: MAP7 (or ensconsin), 5 nM, flowed in first onto immobilized microtubules, then the kinesin-1 construct (1 nM K560); BRB80 pH 6.8 with 1 mM ATP, 150 mM K-acetate; fold change of kinesin fluorescence on the microtubule against no MAP.

Experiment [4] concerns the target taxol-stabilized microtubules of native tubulin, biotin-tubulin and fluorescent-tubulin from porcine brain (~10:1:1) (porcine) (UniProt P02550). The description is as above.
Experiment [5] shares this target. Put plainly: TIRF microscopy of fluorescent proteins on immobilized microtubules; 5 nM KIF1A-mScarlet or 3 nM DDB-TMR on immobilized microtubules, alone or with 5 nM sfGFP-MAP7 or 100 nM mTagBFP-tau; 30 mM Hepes pH 7.4, 150 mM K-acetate, 2 mM Mg-acetate, 1 mM EGTA, 10% glycerol, 1 mM ATP.
Experiment [6] concerns the target taxol-stabilized microtubules polymerized from porcine brain tubulin (porcine) (UniProt P02550). Put plainly: co-sedimentation; 500 nM sfGFP-MAP7 or sfGFP-tau with increasing microtubules; 50 mM Tris pH 8, 150 mM K-acetate, 2 mM Mg-acetate, 1 mM EGTA, 10% glycerol, DTT, taxol, BSA; 25 °C, 20 min; pelleted at 90,000 g; SDS-PAGE; apparent KD.
The target of experiment [7] is taxol-stabilized microtubules of native tubulin, biotin-tubulin and fluorescent-tubulin from porcine brain (~10:1:1) (porcine) (UniProt P02550). Put plainly: single-molecule dwell time by TIRF microscopy; 250 pM sfGFP-MAP7 or 10 nM sfGFP-tau on immobilized microtubules; kymograph analysis; cumulative frequencies fit to a one phase exponential decay; 30 mM Hepes pH 7.4, 150 mM K-acetate buffer.

Experiment [8] shares this target. Put plainly: TIRF microscopy of fluorescent proteins on immobilized microtubules; TIRF-M-based microtubule-binding assay; KD derived from saturation curves.
Experiment [9] has as its target taxol-stabilized microtubules polymerized from porcine brain tubulin (porcine) (UniProt P02550). Put plainly: co-sedimentation; 500 nM sfGFP-MAP7 or sfGFP-tau with increasing microtubules; 50 mM Tris pH 8, 150 mM K-acetate, 2 mM Mg-acetate, 1 mM EGTA, 10% glycerol, DTT, taxol, BSA; 25 °C, 20 min; pelleted at 90,000 g; SDS-PAGE; apparent KD. The source holds these as a separate data set.

Where two headings read alike, the source gives them in different places.

Sequence of sfGFP-Ensconsin, wild type (Drosophila melanogaster) (Drosophila melanogaster) (main, as listed by the source): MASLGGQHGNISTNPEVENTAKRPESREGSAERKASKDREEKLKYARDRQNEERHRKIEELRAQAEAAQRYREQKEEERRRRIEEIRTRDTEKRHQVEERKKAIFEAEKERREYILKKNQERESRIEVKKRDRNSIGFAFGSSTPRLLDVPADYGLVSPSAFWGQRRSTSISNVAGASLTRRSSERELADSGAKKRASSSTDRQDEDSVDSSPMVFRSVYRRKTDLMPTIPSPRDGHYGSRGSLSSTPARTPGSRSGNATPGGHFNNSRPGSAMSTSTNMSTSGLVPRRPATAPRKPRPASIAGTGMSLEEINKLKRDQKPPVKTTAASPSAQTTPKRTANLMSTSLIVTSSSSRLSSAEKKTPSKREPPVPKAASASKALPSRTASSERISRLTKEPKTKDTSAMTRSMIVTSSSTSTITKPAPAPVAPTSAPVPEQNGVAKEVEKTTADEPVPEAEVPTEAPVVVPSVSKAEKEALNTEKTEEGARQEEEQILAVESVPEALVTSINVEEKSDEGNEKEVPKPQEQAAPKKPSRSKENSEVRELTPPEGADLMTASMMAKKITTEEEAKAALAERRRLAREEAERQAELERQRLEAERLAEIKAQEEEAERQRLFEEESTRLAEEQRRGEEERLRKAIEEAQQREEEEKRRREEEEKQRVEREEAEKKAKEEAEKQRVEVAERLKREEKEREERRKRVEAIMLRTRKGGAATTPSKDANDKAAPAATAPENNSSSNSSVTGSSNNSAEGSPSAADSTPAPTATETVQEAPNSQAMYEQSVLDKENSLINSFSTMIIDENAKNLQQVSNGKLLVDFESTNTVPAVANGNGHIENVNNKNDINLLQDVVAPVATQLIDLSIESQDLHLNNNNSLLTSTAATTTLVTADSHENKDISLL

As to “K508-mScarlet (from UniProt P33176 1-508) (domain or fragment)”, the fold change in fluorescence intensity on the microtubule in the presence of sfGFP-MAP7 in experiment [1] was 10.9 fold.

“K523-mScarlet (from UniProt P33176 1-523) (domain or fragment)”: the fold change in fluorescence intensity on the microtubule in the presence of sfGFP-MAP7 in experiment [1] is 152 fold.

For the molecule “K560-mScarlet (truncated human kinesin-1) (from UniProt P33176 1-560) (domain or fragment)”, in experiment [2], the KmMT of the microtubule-stimulated ATPase of 50 nM K560-mScarlet, with 50 nM sfGFP-MAP7 stood at 0.27 µM and the KmMT of the microtubule-stimulated ATPase of 50 nM K560-mScarlet, without MAP7 came out at 1.46 µM. In addition, the fold change in fluorescence intensity on the microtubule in the presence of sfGFP-MAP7 in [1] came to 165 fold. The fold change in fluorescence intensity on the microtubule in the presence of ensconsin in experiment [3] worked out at 147 fold. In experiment [4], this molecule registered a landing rate (motors μm^−1 min^−1) of 0.09 and a landing rate with 5 nM sfGFP-MAP7 (motors μm^−1 min^−1) of 1.34.

On to “dynein–dynactin-BicD2 (DDB)-TMR complex (from UniProt Q921C5 1-820)”, for which, in [5], the fluorescence intensity on the microtubule was 164 A.U and the fluorescence intensity on the microtubule with 5 nM sfGFP-MAP7 amounted to 147 A.U.

As to “sfGFP-MAP7 (full-length human MAP7) (from UniProt Q14244 1-749) (natural protein)”, the Kd in experiment [6] was 470 nM; in experiment [8] it was 3030 nM; in experiment [9], 460 nM. For the same molecule, the dwell time decay constant τ in experiment [7] came out at 82.3 s.

For “sfGFP-MAP7ΔC (aa 1–353) (from UniProt Q14244 1-353) (domain or fragment)”, the Kd in [8] is 1390 nM.

B1: KIF1A-mScarlet (human KIF1A 1–393) (domain or fragment)
chain: MAGASVKVAVRVRPFNSREMSRDSKCIIQMSGSTTTIVNPKQPKETPKSFSFDYSYWSHTSPEDINYASQKQVYRDIGEEMLQHAFEGYNVCIFAYGQTGAGKSYTMMGKQEKDQQGIIPQLCEDLFSRINDTTNDNMSYSVEVSYMEIYCERVRDLLNPKNKGNLRVREHPLLGPYVEDLSKLAVTSYNDIQDLMDSGNKARTVAATNMNETSSRSHAVFNIIFTQKRHDAETNITTEKVSKISLVDLAGSERADSTGAKGTRLKEGANINKSLTTLGKVISALAEMDSGPNKNKKKKKTDFIPYRDSVLTWLLRENLGGNSRTAMVAALSPADINYDETLSTLRYADRAKQIRCNAVINEDPNNKLIRELKDEVTRLRDLLYAQGLGDITD
In experiment [5], B1 registered a fluorescence intensity on the microtubule of 1000 A.U, a fluorescence intensity on the microtubule with 5 nM sfGFP-MAP7 of 332 A.U, a fluorescence intensity on the microtubule with 100 nM mTagBFP-tau of 427 A.U and a landing rate (motors μm^−1 min^−1) of 1.5. Further, in [5], the landing rate with mTagBFP-tau (motors μm^−1 min^−1) worked out at 0.24 and the landing rate with sfGFP-MAP7 (motors μm^−1 min^−1) turned out to be 0.38.
